The subject of assay [1] is B. pseudomallei strains 1026b and MSHR 305. The format is cell-based, Burkholderia pseudomallei.
The subject of another assay is Burkholderia mallei. Kind of assay: microbe, parasite or virus in culture. It is filed as cell-based.
Another assay concerns B. pseudomallei isolates. The assay is described as follows: microbe, parasite or virus in culture. It is filed as cell-based, Burkholderia pseudomallei.
Another assay deals with Bacillus anthracis. The format is cell-based.
The test system of a further assay is Yersinia pestis. The assay is described as follows: microbe, parasite or virus in culture. It is filed as cell-based.

“Also recorded” adds a separate entry of the source.

B1: bovine lactoferrin (protein, UniProt P24627 20-708, looked up)
Lactotransferrin: APRKNVRWCTISQPEWFKCRRWQWRMKKLGAPSITCVRRAFALECIRAIAEKKADAVTLDGGMVFEAGRDPYKLRPVAAEIYGTKESPQTHYYAVAVVKKGSNFQLDQLQGRKSCHTGLGRSAGWIIPMGILRPYLSWTESLEPLQGAVAKFFSASCVPCIDRQAYPNLCQLCKGEGENQCACSSREPYFGYSGAFKCLQDGAGDVAFVKETTVFENLPEKADRDQYELLCLNNSRAPVDAFKECHLAQVPSHAVVARSVDGKEDLIWKLLSKAQEKFGKNKSRSFQLFGSPPGQRDLLFKDSALGFLRIPSKVDSALYLGSRYLTTLKNLRETAEEVKARYTRVVWCAVGPEEQKKCQQWSQQSGQNVTCATASTTDDCIVLVLKGEADALNLDGGYIYTAGKCGLVPVLAENRKSSKHSSLDCVLRPTEGYLAVAVVKKANEGLTWNSLKDKKSCHTAVDRTAGWNIPMGLIVNQTGSCAFDEFFSQSCAPGADPKSRLCALCAGDDQGLDKCVPNSKEKYYGYTGAFRCLAEDVGDVAFVKNDTVWENTNGESTADWAKNLNREDFRLLCLDGTRKPVTEAQSCHLAVAPNHAVVSRSDRAAHVKQVLLHQQALFGKNGKNCPDKFCLFKSETKNLLFNDNTECLAKLGGRPTYEEYLGTEYVTAIANLKKCSTSPLLEACAFLTR
On to B1, for which, in assay [1], the “bacterial growth by T24h compared with positive/untreated control” value is given as “grew to match or exceed the concentration of the positive control; also recorded: replicate to the same levels as those in the untreated controls”; the “bactericidal effect, overall result in words” value is “much more minor direct bactericidal effect”; the “initial reduction in bacterial concentration” value was in the range of 1 to 2 log10; the “kill curve: evolution of microbial load during time” value is given as “impact can be seen at T6h (standalone); also recorded: impact can be seen at T4h (standalone)”. For the same molecule, in the assay on Burkholderia mallei, the “Minimal Inhibitory Concentration” value was “≧91,400 μg/mL” and the “inhibition of growth, result in words” value is reported as “generally did not inhibit B. mallei growth by itself”. For the same molecule, in the assay on B. pseudomallei isolates, the “Minimal Inhibitory Concentration” value is >91,429 μg/mL; the “concentration of bLF at which all isolates were capable of growth (highest concentration tested)” value is recorded as > 91.429 mg/mL; the “inhibition of growth, overall result in words” value was “not directly inhibited”. Also, in the assay with Bacillus anthracis, the “Minimal Inhibitory Concentration” value is >91,400 μg/mL and the “inhibition of growth, result in words” value was “no observed inhibition of growth”. In addition, in the assay on Yersinia pestis, the “Minimal Inhibitory Concentration” value is on record as >91,400 μg/mL and the “inhibition of growth, result in words” value is “did not inhibit Y. pestis growth at any concentration by itself”.

Source of the values: US20150224177A1 (priority 2014, published 2015).
